± gives the uncertainty stated by the source.
B1: Glucocorticoid receptor, residues 419 to 494; numbered along this chain, P04150 (parent)
chain: KLCLVCSDEASGCHYGVLTCGSCKVFFKRAVEGQHNYLCAGRNDCIIDKIRRKNCPACRYRKCLQAGMNLEARKTK

Variants of: B1
Experiment: abundance fitness (aPCA) (normalised: wild type 0, dead -1); higher = more abundant; growth selection in yeast, the domain comes from the species named
Conditions: Homo sapiens

With KLCLVCSDEASGCHYGVLTCGSCKVFFKRAVEGQHVYLCAGRNDCIIDKIRRKNCPACRYRKCLQAGMNLEARKTK as the variant, how does the abundance fitness read?
Its abundance fitness is -0.106 ± 0.039.

For KLCLVCSDEASGCHYGVLTCGSCKVFFKRIVEGQHNYLCAGRNDCIIDKIRRKNCPACRYRKCLQAGMNLEARKTK, which abundance fitness is on record?
Its abundance fitness is -0.071 ± 0.083.

For KLCLVCSDEASTCHYGVLTCGSCKVFFKRAVEGQHNYLCAGRNDCIIDKIRRKNCPACRYRKCLQAGMNLEARKTK, which abundance fitness is on record?
The abundance fitness was -0.069 ± 0.048.

With KLCLVCSDEASGCHYGVLTCGSCKVFFKRAVQGQHNYLCAGRNDCIIDKIRRKNCPACRYRKCLQAGMNLEARKTK as the variant, how does the abundance fitness read?
The abundance fitness was -0.08 ± 0.046.

For KLCLVCSDEASGCHYGVLTCGSCKVFFKRAVEGQHNYLCAGRNDCIIDKIRRKNCPACRYRKCLAAGMNLEARKTK, which abundance fitness is on record?
The abundance fitness was -0.019 ± 0.038.

Which abundance fitness does the source give for KLCLVCSDEAEGCHYGVLTCGSCKVFFKRAVEGQHNYLCAGRNDCIIDKIRRKNCPACRYRKCLQAGMNLEARKTK here?
Its abundance fitness is 0.054 ± 0.044.

For KLCLVCSDEASGCHYGVLTCGSCKVFFKRAVEGQHNYLKAGRNDCIIDKIRRKNCPACRYRKCLQAGMNLEARKTK, which abundance fitness is on record?
The abundance fitness was -0.787 ± 0.13.

Which abundance fitness does the source give for KLCLVCSDEAAGCHYGVLTCGSCKVFFKRAVEGQHNYLCAGRNDCIIDKIRRKNCPACRYRKCLQAGMNLEARKTK here?
Its abundance fitness is -0.043 ± 0.036.

Which abundance fitness does the source give for KLCLVCSDEASGCHYGVLTCGSCKVFFKRAVEGQHNYLCAGRNDCIIDKIRRKNCPACRYRKCLQLGMNLEARKTK here?
Its abundance fitness is -0.024 ± 0.037.

Which abundance fitness does the source give for KLCLVCSDEASGCHQGVLTCGSCKVFFKRAVEGQHNYLCAGRNDCIIDKIRRKNCPACRYRKCLQAGMNLEARKTK here?
The abundance fitness was -0.08 ± 0.046.

Which abundance fitness does the source give for KLCLVCSDEASGCHYGVLTCGSCKVFFKRAVEGQHNYLCAGRNDCIIDKIRRKNCPACRYRKCLMAGMNLEARKTK here?
Its abundance fitness is -0.057 ± 0.043.

Which abundance fitness does the source give for KLCLVCSDEAVGCHYGVLTCGSCKVFFKRAVEGQHNYLCAGRNDCIIDKIRRKNCPACRYRKCLQAGMNLEARKTK here?
The abundance fitness was -0.005 ± 0.037.

With KLCLVCSDEASGCHYGVLTCGSCKVFFKRAVEGQHNYLCAGRNDKIIDKIRRKNCPACRYRKCLQAGMNLEARKTK as the variant, how does the abundance fitness read?
The abundance fitness was -1.27 ± 0.41.

For KLCLVCSDEASGCHYGVLTCGSCKVFFKRAVKGQHNYLCAGRNDCIIDKIRRKNCPACRYRKCLQAGMNLEARKTK, which abundance fitness is on record?
Its abundance fitness is 0.01 ± 0.049.

With KLCLVCSDEASGCHYGVLTCGSCKVFFKRAVEGQHNYLCQGRNDCIIDKIRRKNCPACRYRKCLQAGMNLEARKTK as the variant, how does the abundance fitness read?
Its abundance fitness is 0.012 ± 0.047.

Which abundance fitness does the source give for KLCLVCSDEASGCHYGVLTCGSCKVFFKRAVEGQHNYLCAGRNDCIIDKIRRKNCPACRYRKILQAGMNLEARKTK here?
Its abundance fitness is -0.546 ± 0.23.

Which abundance fitness does the source give for KLCLVCSDEASGCHYGVLTCGSCKWFFKRAVEGQHNYLCAGRNDCIIDKIRRKNCPACRYRKCLQAGMNLEARKTK here?
The abundance fitness was -0.039 ± 0.062.

Which abundance fitness does the source give for KLCLVCSDEASGCLYGVLTCGSCKVFFKRAVEGQHNYLCAGRNDCIIDKIRRKNCPACRYRKCLQAGMNLEARKTK here?
Its abundance fitness is -0.125 ± 0.034.

With KLCLVCSDEASGCHYGVLTCGSCKVFFKRAVEGQHNYLCAGRNDCIIDKIRRKNCPACRYRKCLQAGMNIEARKTK as the variant, how does the abundance fitness read?
The abundance fitness was -0.018 ± 0.083.

For KLCLVCSDEASGCHYAVLTCGSCKVFFKRAVEGQHNYLCAGRNDCIIDKIRRKNCPACRYRKCLQAGMNLEARKTK, which abundance fitness is on record?
The abundance fitness was -0.216 ± 0.037.

Which abundance fitness does the source give for KLCLVCSDEASGCHGGVLTCGSCKVFFKRAVEGQHNYLCAGRNDCIIDKIRRKNCPACRYRKCLQAGMNLEARKTK here?
Its abundance fitness is -0.096 ± 0.035.

For KLCLVCSDEASGCHYGVLTCGSCKVFFKRAVEGQHNYLCAKRNDCIIDKIRRKNCPACRYRKCLQAGMNLEARKTK, which abundance fitness is on record?
Its abundance fitness is 0.011 ± 0.048.

With KLCLVCSDEASGCHYGVLTCGSCKVFFKRAVEGQHNYLCAGRNDCIIDKIRRKNCPAARYRKCLQAGMNLEARKTK as the variant, how does the abundance fitness read?
The abundance fitness was -0.935 ± 0.12.

With KLCLVCSDEASGCHYGVLTCGSCKVFFKRAVEGQHNYLCAGRNDCIIDKIRRKNGPACRYRKCLQAGMNLEARKTK as the variant, how does the abundance fitness read?
Its abundance fitness is -0.814 ± 0.061.

For KLCLVCSDEASGCHYGVLTCGSCWVFFKRAVEGQHNYLCAGRNDCIIDKIRRKNCPACRYRKCLQAGMNLEARKTK, which abundance fitness is on record?
Its abundance fitness is -0.037 ± 0.089.

With KLCLVCSDEASGCHYGVLTCGSCKVFFKRAVEGQHNYLCAGRNDHIIDKIRRKNCPACRYRKCLQAGMNLEARKTK as the variant, how does the abundance fitness read?
The abundance fitness was -0.168 ± 0.09.

With KLCLVCSDEASGCHYGVLTCGSCKVFFKRAVEGQHNYLCAGRNDCIIDKIRTKNCPACRYRKCLQAGMNLEARKTK as the variant, how does the abundance fitness read?
The abundance fitness was -0.129 ± 0.043.

For KLCLVCSDEASGCHYGVLTCGSCKVFPKRAVEGQHNYLCAGRNDCIIDKIRRKNCPACRYRKCLQAGMNLEARKTK, which abundance fitness is on record?
The abundance fitness was -0.695 ± 0.15.

With KLCLVCSDEASGCHYGVLTCGSCKVFFARAVEGQHNYLCAGRNDCIIDKIRRKNCPACRYRKCLQAGMNLEARKTK as the variant, how does the abundance fitness read?
The abundance fitness was -0.056 ± 0.036.

Which abundance fitness does the source give for KGCLVCSDEASGCHYGVLTCGSCKVFFKRAVEGQHNYLCAGRNDCIIDKIRRKNCPACRYRKCLQAGMNLEARKTK here?
The abundance fitness was -0.017 ± 0.033.

Which abundance fitness does the source give for KLCLVCSDEAMGCHYGVLTCGSCKVFFKRAVEGQHNYLCAGRNDCIIDKIRRKNCPACRYRKCLQAGMNLEARKTK here?
Its abundance fitness is -0.015 ± 0.049.

With KLCLVCSDEACGCHYGVLTCGSCKVFFKRAVEGQHNYLCAGRNDCIIDKIRRKNCPACRYRKCLQAGMNLEARKTK as the variant, how does the abundance fitness read?
The abundance fitness was -0.102 ± 0.07.

With KLCLVCSDEASGCHYGVLTCGSCKVFFKRAVEGQHNFLCAGRNDCIIDKIRRKNCPACRYRKCLQAGMNLEARKTK as the variant, how does the abundance fitness read?
Its abundance fitness is 0.011 ± 0.07.

With KLCLVCSDEASGCHYGVLTCGSCKVFFKRAVEGQHNYLCAGRNDCIIDKIRRKNCPACRYRKCLQATMNLEARKTK as the variant, how does the abundance fitness read?
Its abundance fitness is -0.51 ± 0.08.

Which abundance fitness does the source give for KLCYVCSDEASGCHYGVLTCGSCKVFFKRAVEGQHNYLCAGRNDCIIDKIRRKNCPACRYRKCLQAGMNLEARKTK here?
The abundance fitness was -0.029 ± 0.062.

Which abundance fitness does the source give for KLCLVCSDEASGCHYGVLTCGSCKVFFKRAVEGQHNYLCAGRNDCIIDKIRRKNCPACRYRECLQAGMNLEARKTK here?
Its abundance fitness is -0.2 ± 0.049.
